The assay addresses polypeptide B9-23 composed of the ninth to twenty-third amino acid residues of the amino terminal on B chain of human insulin (human).
As to “spleen T cells of Balb/c mice of the B9-23 immune group (cells without a defined receptor)”, the T cell proliferation (CFSE staining, flow cytometry) amounted to 8.94%.

Turning to “spleen T cells of Balb/c mice of the pcDB9-23 and B9-23 coimmune group (cells without a defined receptor)”, the T cell proliferation (CFSE staining, flow cytometry) was 0.08%.

In turn, “spleen T cells of Balb/c mice of the pcDB9-23 immune group (cells without a defined receptor)” had a T cell proliferation (CFSE staining, flow cytometry) of 22.3%.

For the origin of these results see patent publication US20130089566A1.
